Laboratory results taken from US20250289861A1 (IMMUNOFORGE, published 2025).
Residue numbers refer to the chain shown, from its start. Numbers in names are those of the source.

B1: PF1802_M021 (GLP1-Fc-mut.IGF1) (Fc fusion)
chain: HGEGTFTSDVSSYLEEQAAKEFIAWLVKGGGGSAPAPGGGGSDKTHTCPPCPAPELLGGPSVFLFPPKPKDTLMISRTPEVTCVVVDVSHEDPEVKFNWYVDGVEVHNAKTKPREEQYASTYRVVSVLTVEHMDWLNGKEYKCKVSNKALPAPIEKTISKAKGQPREPQVYTLPPSREEMTKNQVSLTCLVKGFYPSDIAVEWESNGQPENNYKTTPPVLDSDGSFFLYSKLTVDKSRWQQGNVFSCSVLHEALHNHYTQKSLSLSPGKGGGGSGGGGSGGGGSGGGGSGAHSGPATLCGAELVDALQFVCGDRGFYFNKPTGYGSSSRRAPQTGIVDECCARSCDLRRLEMYCAPLKPTKST
notes: M008 with a half-life-increasing Fc: N297A, L309E, Q311M, M428L
B2: PF1802_M020 (GLP1-Fc-mut.IGF1) (Fc fusion)
chain: B1 chain with E131Y
notes: M008 with a half-life-increasing Fc: N297A, L309Y, Q311M, M428L
B3: PF1802_M022 (GLP1-Fc-mut.IGF1) (Fc fusion)
chain: B1 chain with M133W
notes: M008 with a half-life-increasing Fc: N297A, L309E, Q311W, M428L

Target: T1, Human FcRn-GST protein (human, UniProt P55899 24-297; P61769 21-119, limits assumed)
T1 construct: not shown: GST tag
Experiment: ELISA at pH 6.0: fusion protein coated on the plate, Human FcRn-GST titrated (x axis, ug/ml), anti-GST Ab-HRP, A450
Method: To investigate the binding affinity of the PF1802_M020, M021, and M022 substances, obtained by introducing three types of blood half-life-increasing Fc to the PF1802-M008 candidate substance, to human FcRn, ELISA was performed, and to investigate the difference in binding affinity depending on pH, two situations at pH 6.0 and pH 7.4 were prepared, respectively. Specifically, each of the PF1802_M020, M021, and M022 substances was coated at 4 μg/mL on a 96 well immunoplate, and reacted with PBS (pH 6.0 and 7.4) containing 4% skim milk at room temperature for 1 hour to block non-specific binding. Thereafter, the Human FcRn-GST protein was diluted 4-fold from a maximum concentration of 5 μg/mL to 0.0003 μg/mL using PBS (pH 6.0, 7.4) containing 1% skim milk, and then dispensed into each well, followed by incubation at room temperature for 1 hour.

T1 sequence (P55899 24-297 limits assumed, chain 1 of 2): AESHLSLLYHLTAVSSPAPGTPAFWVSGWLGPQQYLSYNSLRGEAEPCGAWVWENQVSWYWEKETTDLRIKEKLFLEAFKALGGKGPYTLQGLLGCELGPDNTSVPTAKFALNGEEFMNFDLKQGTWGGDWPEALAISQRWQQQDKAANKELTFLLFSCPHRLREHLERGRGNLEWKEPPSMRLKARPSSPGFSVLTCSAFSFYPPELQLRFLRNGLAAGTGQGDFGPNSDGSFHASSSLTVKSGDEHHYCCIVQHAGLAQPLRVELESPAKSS
T1 sequence (P61769 21-119 limits assumed, chain 2 of 2): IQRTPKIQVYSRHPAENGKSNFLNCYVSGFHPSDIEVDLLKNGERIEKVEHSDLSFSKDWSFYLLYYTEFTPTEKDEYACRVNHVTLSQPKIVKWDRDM

Binder | EC50 (read off the curve) [µg/mL]
B1 | ~0.03
B2 | ~0.04
B3 | ~0.03
